Results taken from publication doi:10.1101/211250 (bioRxiv, 2017).
Non-standard residues stand in square brackets, D forms with d. No end group written: not given here. pS = N[C@@H](COP(=O)(O)O)C(=O)O

B13: FITC-labeled p-1 phosphorylated MCC peptide (peptide)
peptide: HTNET[pS]L
modifications: also: FITC label (position not given here)
B14: FITC-labeled p-3 phosphorylated RPS6KA2 peptide (peptide)
peptide: RLT[pS]TRL
modifications: also: FITC label (position not given here)

Assays:
[1] = target: FITC-labeled p-6 phosphorylated TANC1 peptide (human); experiment: MST
[2] = target: FITC-labeled p-3 phosphorylated RPS6KA2 peptide (human); experiment: MST
[3] = target: FITC-labeled phosphomimetic TANC1 peptide (p-6 Ser to Glu) (human) (UniProt Q9C0D5); experiment: MST
[4] = target: FITC-labeled p-1 phosphorylated MCC peptide (human); experiment: MST
[5] = target: FITC-labeled phosphomimetic RPS6KA2 peptide (p-3 Ser to Glu) (human) (UniProt Q15349); experiment: MST
[6] = target: Scribble PDZ1 R762A/A743R (human, UniProt Q14160 719-829, R762A | A743R); experiment: ITC
[7] = target: T1, Scribble PDZ1 (human, UniProt Q14160 719-829); experiment: ITC
[8] = target: Scribble PDZ1 R762A (human, UniProt Q14160 719-829, R762A); experiment: ITC
[9] = target: T1, Scribble PDZ1; experiment: MST
[10] = target: Scribble PDZ1 R801A (human, UniProt Q14160 719-829, R801A); experiment: ITC
[11] = target: Scribble PDZ1 K746A (human, UniProt Q14160 719-829, K746A); experiment: ITC
[12] = target: B13; experiment: MST
[13] = target: B14; experiment: MST

Scribble PDZ1 R762A/A743R, sequence (Q14160 719-829 A743R/R762A): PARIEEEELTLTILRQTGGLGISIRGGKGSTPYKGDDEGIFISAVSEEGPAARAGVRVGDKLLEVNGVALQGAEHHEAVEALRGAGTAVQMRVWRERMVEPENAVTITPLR
T1 sequence (Q14160 719-829): as the sequence (Q14160 719-829 A743R/R762A) above, with R25A, A44R counted along it
Scribble PDZ1 R762A, sequence (Q14160 719-829 R762A): as the sequence (Q14160 719-829 A743R/R762A) above, with R25A counted along it
Scribble PDZ1 K746A, sequence (Q14160 719-829 K746A): as the sequence (Q14160 719-829 A743R/R762A) above, with R25A, K28A, A44R counted along it
Scribble PDZ1 R801A, sequence (Q14160 719-829 R801A): as the sequence (Q14160 719-829 A743R/R762A) above, with R25A, A44R, R83A counted along it
FITC-labeled phosphomimetic TANC1 peptide (p-6 Ser to Glu) (human), sequence (Q9C0D5 whole entry, looked up, tested part not stated): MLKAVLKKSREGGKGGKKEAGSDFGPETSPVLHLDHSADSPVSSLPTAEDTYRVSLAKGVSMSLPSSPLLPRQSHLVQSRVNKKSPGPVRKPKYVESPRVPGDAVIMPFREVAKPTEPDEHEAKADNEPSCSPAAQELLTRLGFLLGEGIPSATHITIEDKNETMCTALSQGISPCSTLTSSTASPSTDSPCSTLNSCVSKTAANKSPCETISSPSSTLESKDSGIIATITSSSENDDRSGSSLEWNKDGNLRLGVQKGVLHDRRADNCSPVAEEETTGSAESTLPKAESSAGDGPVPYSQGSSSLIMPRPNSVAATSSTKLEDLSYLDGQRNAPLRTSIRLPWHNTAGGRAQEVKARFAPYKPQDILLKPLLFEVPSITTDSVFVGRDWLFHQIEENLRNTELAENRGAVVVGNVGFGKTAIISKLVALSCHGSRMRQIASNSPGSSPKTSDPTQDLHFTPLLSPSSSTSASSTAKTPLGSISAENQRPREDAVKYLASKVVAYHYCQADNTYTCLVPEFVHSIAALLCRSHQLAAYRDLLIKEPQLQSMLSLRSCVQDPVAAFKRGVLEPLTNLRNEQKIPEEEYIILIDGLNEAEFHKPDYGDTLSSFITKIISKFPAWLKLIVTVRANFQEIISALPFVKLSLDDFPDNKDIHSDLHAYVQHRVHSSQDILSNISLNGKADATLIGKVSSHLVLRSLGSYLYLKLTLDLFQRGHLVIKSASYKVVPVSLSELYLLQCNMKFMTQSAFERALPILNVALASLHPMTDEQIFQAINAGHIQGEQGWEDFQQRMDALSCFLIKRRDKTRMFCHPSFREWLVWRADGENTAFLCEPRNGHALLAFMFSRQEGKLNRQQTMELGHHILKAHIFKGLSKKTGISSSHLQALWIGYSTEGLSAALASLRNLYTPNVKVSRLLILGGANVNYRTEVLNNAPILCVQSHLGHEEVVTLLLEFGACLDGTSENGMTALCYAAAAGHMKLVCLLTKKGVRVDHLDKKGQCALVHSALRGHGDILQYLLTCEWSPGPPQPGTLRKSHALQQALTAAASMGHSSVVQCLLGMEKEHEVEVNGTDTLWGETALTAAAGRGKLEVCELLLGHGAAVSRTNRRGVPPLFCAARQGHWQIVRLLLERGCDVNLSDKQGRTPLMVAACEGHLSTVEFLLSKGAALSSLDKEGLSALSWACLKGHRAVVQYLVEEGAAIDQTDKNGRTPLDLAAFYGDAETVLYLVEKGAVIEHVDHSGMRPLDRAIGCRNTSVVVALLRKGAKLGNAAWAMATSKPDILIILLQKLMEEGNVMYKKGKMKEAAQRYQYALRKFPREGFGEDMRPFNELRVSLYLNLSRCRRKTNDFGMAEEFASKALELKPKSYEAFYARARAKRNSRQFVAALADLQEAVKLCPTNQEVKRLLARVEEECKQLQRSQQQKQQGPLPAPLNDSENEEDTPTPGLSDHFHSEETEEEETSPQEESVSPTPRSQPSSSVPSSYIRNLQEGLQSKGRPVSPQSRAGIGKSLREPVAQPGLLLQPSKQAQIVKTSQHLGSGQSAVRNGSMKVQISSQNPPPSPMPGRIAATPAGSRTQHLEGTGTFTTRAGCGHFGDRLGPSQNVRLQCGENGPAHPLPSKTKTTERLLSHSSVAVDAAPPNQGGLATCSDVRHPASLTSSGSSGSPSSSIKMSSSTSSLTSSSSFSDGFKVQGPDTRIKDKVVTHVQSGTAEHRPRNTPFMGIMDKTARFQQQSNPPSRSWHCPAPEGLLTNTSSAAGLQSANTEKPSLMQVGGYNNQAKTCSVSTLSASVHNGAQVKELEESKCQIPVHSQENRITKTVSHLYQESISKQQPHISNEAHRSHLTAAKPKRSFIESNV
FITC-labeled phosphomimetic RPS6KA2 peptide (p-3 Ser to Glu) (human), sequence (Q15349 whole entry, looked up, tested part not stated): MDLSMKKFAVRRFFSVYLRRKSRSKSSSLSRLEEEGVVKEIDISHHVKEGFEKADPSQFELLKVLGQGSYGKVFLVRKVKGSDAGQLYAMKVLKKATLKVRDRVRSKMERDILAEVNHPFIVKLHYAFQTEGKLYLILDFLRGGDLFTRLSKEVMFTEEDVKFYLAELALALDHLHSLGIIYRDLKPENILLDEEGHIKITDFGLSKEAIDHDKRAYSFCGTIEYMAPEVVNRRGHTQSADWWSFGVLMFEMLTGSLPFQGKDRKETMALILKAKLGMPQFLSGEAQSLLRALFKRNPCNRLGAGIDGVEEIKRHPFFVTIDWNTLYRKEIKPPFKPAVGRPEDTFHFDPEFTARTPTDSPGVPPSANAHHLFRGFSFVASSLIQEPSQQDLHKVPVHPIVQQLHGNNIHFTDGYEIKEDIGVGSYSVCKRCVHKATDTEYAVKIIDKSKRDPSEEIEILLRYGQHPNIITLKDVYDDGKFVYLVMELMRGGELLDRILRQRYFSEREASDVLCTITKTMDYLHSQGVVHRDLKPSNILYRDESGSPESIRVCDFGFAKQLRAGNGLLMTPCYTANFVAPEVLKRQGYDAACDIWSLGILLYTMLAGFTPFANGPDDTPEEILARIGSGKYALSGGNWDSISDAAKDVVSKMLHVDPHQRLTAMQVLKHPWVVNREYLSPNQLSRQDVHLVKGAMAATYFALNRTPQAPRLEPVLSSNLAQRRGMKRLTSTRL

DLG1 PDZ2 (domain or fragment)
fold lower affinity than for the unphosphorylated peptide [1]: 2.9 fold | fold higher affinity than for the unphosphorylated peptide [2]: 1.3 fold | fold lower affinity than for the unphosphorylated peptide [3]: 2.4 fold | fold lower affinity than for the unphosphorylated peptide [4]: 9 fold | fold higher affinity than for the unphosphorylated peptide [5]: 7 fold

B1: unphosphorylated MCC peptide (RPHTNETSL-coo-) (peptide)
peptide: RPHTNETSL-OH
binding result [6]: binds | binding result [7]: binds | binding result [8]: binds

B2: FITC-labelled unphosphorylated RPS6KA1 peptide (VRKLPSTTL-coo-) (peptide)
peptide: VRKLPSTTL-OH
modifications: also: FITC label, position not given here
Kd [9]: 1000 nM

B3: p-3 phosphorylated RPS6KA2 peptide (MKRLTpSTRL-coo-) (peptide)
peptide: MKRLT[pS]TRL-OH
modifications: N-terminus assumed
SMILES: CSCC[C@H](N)C(=O)N[C@@H](CCCCN)C(=O)N[C@@H](CCCNC(=N)N)C(=O)N[C@@H](CC(C)C)C(=O)N[C@H](C(=O)N[C@@H](COP(=O)(O)O)C(=O)N[C@H](C(=O)N[C@@H](CCCNC(=N)N)C(=O)N[C@@H](CC(C)C)C(=O)O)[C@@H](C)O)[C@@H](C)O
binding result [6]: binds | fold lower KD than for the unphosphorylated peptide [7]: 5 fold | binding result [10]: binds | binding result [8]: binds | binding result [11]: binds

B4: FITC-labeled unphosphorylated RPS6KA2 peptide (RLTSTRL-coo-) (peptide)
peptide: RLTSTRL-OH
modifications: also: FITC label, position not given here
binding result [9]: binds

B5: FITC-labeled phosphomimetic RPS6KA2 peptide (p-3 Ser to Glu) (peptide)
peptide: RLTETRL
modifications: also: FITC label, position not given here
binding result [9]: binds

B6: p-1 phosphorylated MCC peptide (RPHTNETpSL-coo-) (peptide)
peptide: RPHTNET[pS]L-OH
modifications: N-terminus assumed
SMILES: CC(C)C[C@H](NC(=O)[C@H](COP(=O)(O)O)NC(=O)[C@@H](NC(=O)[C@H](CCC(=O)O)NC(=O)[C@H](CC(N)=O)NC(=O)[C@@H](NC(=O)[C@H](Cc1c[nH]cn1)NC(=O)[C@@H]1CCCN1C(=O)[C@@H](N)CCCNC(=N)N)[C@@H](C)O)[C@@H](C)O)C(=O)O
binding result [6]: binds | fold lower KD than for the unphosphorylated peptide [7]: 2 fold | binding result [8]: binds

B7: FITC-labeled p-6 phosphorylated TANC1 peptide (peptide)
peptide: KR[pS]FIESNV
modifications: also: FITC label, position not given here
binding result [9]: binds

B8: FITC-labeled unphosphorylated TANC1 peptide (KRSFIESNV-coo-) (peptide)
peptide: KRSFIESNV-OH
modifications: also: FITC label, position not given here
binding result [9]: binds

B9: unphosphorylated RPS6KA2 peptide (MKRLTSTRL-coo-) (peptide)
peptide: MKRLTSTRL-OH
binding result [6]: binds | binding result [7]: binds | binding result [10]: binds | binding result [8]: binds | binding result [11]: binds

B10: Shank1 PDZ (domain or fragment)
chain: TVLLQKKDSEGFGFVLRGAKAQTPIEEFTPTPAFPALQYLESVDEGGVAWRAGLRMGDFLIEVNGQNVVKVGHRQVVNMIRQGGNTLMVKVVMVT
fold lower affinity than for the unphosphorylated peptide [12]: 3 fold | fold lower affinity than for the unphosphorylated peptide [13]: 3.6 fold

B11: FITC-labeled unphosphorylated MCC peptide (HTNETSL-coo-) (peptide)
peptide: HTNETSL-OH
modifications: also: FITC label, position not given here
binding result [9]: binds

B12: FITC-labelled phosphorylated RPS6KA1 peptide (S732, p-3) (peptide)
peptide: VRKLP[pS]TTL
modifications: also: FITC label, position not given here
Kd [9]: 390 nM

B13
binding result [9]: binds

B14
binding result [9]: binds
